Assay results published in US20230357438A1 (BIOSION, published 2023).
Read-outs that look alike come from different tables or passages of the source.

Tests used:
[1] = biological target: T1, cynomolgus monkey C5-his protein (Acro biosystems, Cat#CO5-C52Hx) (cynomolgus monkey, UniProt A0A2K5U1T1 19-1676); test: indirect ELISA on coated cynomolgus C5-his (1 ug/ml), anti-human IgG Fc-HRP
T1 construct: Bought protein; also called Cynomolgus C5-his; cynomolgus C5; not shown: his tag

[2] = biological target: T2, recombinant human C5-his protein (Sino Biological Inc., Cat#13416-H18H) (human, UniProt P01031 19-1676); test: capture ELISA: antibody captured on goat anti-human IgG Fc, biotin-labeled human C5-his 0.99 nM, streptavidin-HRP
T2 construct: Bought protein; also called wild type human C5; not shown: his tag

[3] = biological target: T3, mutant human C5 (R885H)-his protein (Acro biosystems, Cat#CO5-H52Hx) (human, UniProt P01031 19-1676); test: SPR (Biacore T200), antibody captured by anti-human IgG, C5 in flow, 1:1 fit
T3 construct: Bought protein; also called human C5 mutant; not shown: his tag

[4] = biological target: T2, recombinant human C5-his protein (Sino …); test: competitive ELISA: antibody pre-mixed with biotin-labeled human C5-his 0.99 nM, added to coated Eculizumab; partial inhibition only
[5] = biological target: T2, recombinant human C5-his protein (Sino …); test: SPR (Biacore T200), antibody captured by anti-human IgG, C5 in flow, 1:1 fit
[6] = biological target: T1, cynomolgus monkey C5-his protein (Acro …); test: as above
[7] = biological target: T3, mutant human C5 (R885H)-his protein …; test: indirect ELISA on coated human C5 (R885H)-his (2 ug/ml), anti-human IgG Fc-HRP
[8] = biological target: T3, mutant human C5 (R885H)-his protein …; test: as above; remark: listed apart in the source
[9] = biological target: T2, recombinant human C5-his protein (Sino …); test: competitive ELISA: antibody pre-mixed with biotin-labeled human C5-his 0.99 nM, added to coated Eculizumab; partial inhibition only, value below the range tested
[10] = biological target: T2, recombinant human C5-his protein (Sino …); test: capture ELISA: antibody captured on goat anti-human IgG Fc, biotin-labeled human C5-his 0.99 nM, streptavidin-HRP; remark: listed apart in the source
[11] = biological target: T1, cynomolgus monkey C5-his protein (Acro …); test: indirect ELISA on coated cynomolgus C5-his (1 ug/ml), anti-human IgG Fc-HRP; remark: listed apart in the source

EC50 [1]	EC50 [2]	Kd [3]	koff [3]	kon [3]	IC50 [4]	Kd [5]	koff [5]	kon [5]	Kd [6]	koff [6]	kon [6]	EC50 [7]	EC50 [8]	IC50 [9]	EC50 [10]	EC50 [11]	Binder
0.128 nM	0.0277 nM	0.303 nM	0.000153 s⁻¹	505000 M⁻¹ s⁻¹	~0.256 nM	0.262 nM	3.47e-05 s⁻¹	133000 M⁻¹ s⁻¹	1.58 nM	0.000293 s⁻¹	185000 M⁻¹ s⁻¹	0.0853 nM	–	–	–	–	A5G9C2C7 (antibody, V domains shown, Fully human antibody purified from hybridoma; not added here) VH: not shown VL: DIQMTQSPSTLSASVGDRVTITCRASQNIYNWLAWYQQKPGKAPKLLIYKASSLESGVPSRFSGSGSGTEFTLTISSLQPDDFATYYCQQYNSNSRTFGQGTKVEIK
–	–	1.32 nM	0.000408 s⁻¹	308000 M⁻¹ s⁻¹	–	1.6 nM	0.000186 s⁻¹	117000 M⁻¹ s⁻¹	0.741 nM	0.000267 s⁻¹	360000 M⁻¹ s⁻¹	–	0.0684 nM	~0.00153 nM	0.0418 nM	0.127 nM	A2E12G12H7 (antibody, V domains shown, Fully human antibody purified from hybridoma; not added here) VH: QVQLVQSGAEVKKPGASVKVSCKASGYTFTGYYIHWVRQAPGQGLEWMGWINPNSGSTNSAQKFQDWVTLTRDTSISTAYMELSRLKSDDTAVYYCARRADYYGSGNFYYFDYWGQGTLVTVSS VL: DIQMTQSPSSVSASVGDRVTISCRASQSISRWLAWYQQKPGKAPKLLIYAATSLQSGVPSRFSGSGFVRDFTLTISSLQPEDFATYYCQQANTFPLIFGGGTKVEIK
